Measurements as given in patent US20180186853A1 (HANMI PHARM, published 2018).
Non-standard residues stand in square brackets, D forms with d. No end group written: not given here. Aib = CC(C)(N)C(=O)O

B1: glucagon derivative of SEQ ID NO: 7 (peptide)
peptide: YSQGTFTSDYSKYLDSCEADDFVQWLMNT
B2: glucagon derivative of SEQ ID NO: 4 (peptide)
peptide: HSQGTFTSDYSKYLDSCDAQDFVQWLMNT
B3: glucagon derivative of SEQ ID NO: 5 (peptide)
peptide: HSQGTFTSDYSKYLDSCEAQDFVQWLMNT
B4: glucagon derivative of SEQ ID NO: 8 (peptide)
peptide: Y[Aib]QGTFTSDYSKYLDSCDAQDFVQWLINT
B5: glucagon derivative of SEQ ID NO: 6 (peptide)
peptide: HSQGTFTSDYSKYLDSCEADDFVQWLMNT

target: human glucagon receptor (human, UniProt P47871 26-477); assay: cell-based or functional assay
Sequence (P47871 26-477): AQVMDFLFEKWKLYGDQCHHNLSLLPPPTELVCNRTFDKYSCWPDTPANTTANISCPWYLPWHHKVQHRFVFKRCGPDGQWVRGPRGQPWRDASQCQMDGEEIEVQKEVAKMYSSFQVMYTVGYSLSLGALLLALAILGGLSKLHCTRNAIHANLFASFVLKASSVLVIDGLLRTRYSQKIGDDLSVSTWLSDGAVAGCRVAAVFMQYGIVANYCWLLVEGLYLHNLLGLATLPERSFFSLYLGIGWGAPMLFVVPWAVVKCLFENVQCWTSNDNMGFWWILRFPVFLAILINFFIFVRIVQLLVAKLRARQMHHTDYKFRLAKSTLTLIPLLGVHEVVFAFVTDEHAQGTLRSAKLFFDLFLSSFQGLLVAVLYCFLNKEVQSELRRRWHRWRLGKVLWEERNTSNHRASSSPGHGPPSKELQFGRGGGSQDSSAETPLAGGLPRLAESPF

Binder | In vitro Activity (Relative Activity of SEQ ID NO: 1, %), from cAMP EC50 [%]
B1 | < 0.1
B2 | < 0.1
B3 | 0.3
B4 | < 0.1
B5 | < 0.1
